According to publication PMC3713010, “Sox2 Transcriptionally Regulates Pqbp1, an Intellectual Disability-Microcephaly Causative Gene, in Neural Stem Progenitor Cells”:

T1: Oct6 DNA-binding domain (BD-Oct6) (Mus musculus (B6), UniProt P21952 317-416)
T1 sequence: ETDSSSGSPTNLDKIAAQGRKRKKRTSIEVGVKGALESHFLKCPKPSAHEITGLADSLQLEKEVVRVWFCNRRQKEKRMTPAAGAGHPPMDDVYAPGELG

T2: Brn2 DNA-binding domain (BD-Brn2) (Mus musculus (B6), UniProt P31360 336-435)
T2 sequence: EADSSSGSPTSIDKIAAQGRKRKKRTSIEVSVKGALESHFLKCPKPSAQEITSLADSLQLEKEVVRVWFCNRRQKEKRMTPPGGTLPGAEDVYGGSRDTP

B1: 113 (dsDNA)
DNA 1: GGGGGACTAAGTCATTGTTTATTTCCGTGCTGTTCCCCC
DNA 2: GGGGGAACAGCACGGAAATAAACAATGACTTAGTCCCCC
B2: 124 (dsDNA)
DNA 1: GGGGGCTTATGCTTCTATTCTACACAATTCCACAACCCCCC
DNA 2: GGGGGGTTGTGGAATTGTGTAGAATAGAAGCATAAGCCCCC
B3: 122 (dsDNA)
DNA 1: GGGGGGAAAAGGATTTGTACTTAAATAAGCACCTGGCCCCCC
DNA 2: GGGGGGCCAGGTGCTTATTTAAGTACAAATCCTTTTCCCCCC
B4: 126 (dsDNA)
DNA 1: GGGGGAATGTTGTCATAATTGAAAAAGACAAAGCACTAATCCCCC
DNA 2: GGGGGATTAGTGCTTTGTCTTTTTCAATTATGACAACATTCCCCC
B5: 110 (dsDNA)
DNA 1: GGGGGTTTATTTATTTGTTTTATTTCTATTTTTCTTGGTGACCCCC
DNA 2: GGGGGTCACCAAGAAAAATAGAAATAAAACAAATAAATAAACCCCC
B6: 117 (dsDNA)
DNA 1: GGGGGGAAAAACAAAGATTTAGTATAAACCCCC
DNA 2: GGGGGTTTATACTAAATCTTTGTTTTTCCCCCC
B7: 125 (dsDNA)
DNA 1: GGGGGGGGATGCAATTGTCAGTCACCTTTCTTGAGCCTGTGGGACCCCC
DNA 2: GGGGGTCCCACAGGCTCAAGAAAGGTGACTGACAATTGCATCCCCCCCC
B8: 118 (dsDNA)
DNA 1: GGGGGGACAAGGGTCAATTTGCTAGACAAAGATCTTCACCCCC
DNA 2: GGGGGTGAAGATCTTTGTCTAGCAAATTGACCCTTGTCCCCCC
B9: 111 (dsDNA)
DNA 1: GGGGGTTCAACCTTTTGTTGTATCATTTAAAAAACATTCCCCC
DNA 2: GGGGGAATGTTTTTTAAATGATACAACAAAAGGTTGAACCCCC
B10: 112 (dsDNA)
DNA 1: GGGGGTGTGTTCATTTGTTTTTATTTTAGAAGGAGTCCCCC
DNA 2: GGGGGACTCCTTCTAAAATAAAAACAAATGAACACACCCCC
B11: 119 (dsDNA)
DNA 1: GGGGGCCGATCGCTTTGTTCTACATTTTATGTTCTATCCCCC
DNA 2: GGGGGATAGAACATAAAATGTAGAACAAAGCGATCGGCCCCC
B12: 127 (dsDNA)
DNA 1: GGGGGTTTTGTTTTTTGTTTAAAGCAATAACATATTCAGCCCCC
DNA 2: GGGGGCTGAATATGTTATTGCTTTAAACAAAAAACAAAACCCCC
B13: 11 (dsDNA)
DNA 1: GGGGGGTGGGGTACAAAAATGGCCCTTTGTGATCAACTCCCCC
DNA 2: GGGGGAGTTGATCACAAAGGGCCATTTTTGTACCCCACCCCCC
B14: 10 (dsDNA)
DNA 1: GGGGGACACACACACAAAGATTTATTTATTCATTTAATCCCCC
DNA 2: GGGGGATTAAATGAATAAATAAATCTTTGTGTGTGTGTCCCCC
B15: 120 (dsDNA)
DNA 1: GGGGGTCCACACTCTATAATCTCACATTGTTTGGCACCCCCCC
DNA 2: GGGGGGGTGCCAAACAATGTGAGATTATAGAGTGTGGACCCCC
B16: 116 (dsDNA)
DNA 1: GGGGGAAGGCCAGACTAATCTACAAAGTGAGTTCCCCCC
DNA 2: GGGGGGAACTCACTTTGTAGATTAGTCTGGCCTTCCCCC
B17: 123 (dsDNA)
DNA 1: GGGGGAGTGCTATTTTGTCGAGAAATTGTAGAAGACACCCCC
DNA 2: GGGGGTGTCTTCTACAATTTCTCGACAAAATAGCACTCCCCC
B18: 121 (dsDNA)
DNA 1: GGGGGGTGCTCAATTTGTGTTAGCTATTACTAGCAAGTCATTAACTCACCCCCC
DNA 2: GGGGGGTGAGTTAATGACTTGCTAGTAATAGCTAACACAAATTGAGCACCCCCC
B19: 114 (dsDNA)
DNA 1: GGGGGTGATTTTTGCAAAATTTTGTTTTGTTTCTTGAGCCCCC
DNA 2: GGGGGCTCAAGAAACAAAACAAAATTTTGCAAAAATCACCCCC
B20: 108 (dsDNA)
DNA 1: GGGGGCATCTTATCGTTAATATATACGTTTGTTACATATACCCCC
DNA 2: GGGGGTATATGTAACAAACGTATATATTAACGATAAGATGCCCCC
B21: 115 (dsDNA)
DNA 1: GGGGGCTGGCCAGACAATGACGATATTTTTTTCCTTCACCCCCC
DNA 2: GGGGGGTGAAGGAAAAAAATATCGTCATTGTCTGGCCAGCCCCC
B22: 109 (dsDNA)
DNA 1: GGGGGCTTTTTTTTTTGTATGTGATTTGAGGCAGAGTCCCCC
DNA 2: GGGGGACTCTGCCTCAAATCACATACAAAAAAAAAAGCCCCC

Key:
Assay in all cases: EMSA; 10% glycerol, 20 mM HEPES pH 7.8, 45 mM KCl, 10 mM NaCl, 1 mM EDTA, 1 mM DTT, 0.2 ug/uL BSA, 0.1% NP-40, 50 ng poly-dIdC; 20 ng each GST protein; room temperature 30 min (heterodimers 4 C); 6% PAGE 0.25x TBE
Details in all cases: protein: recombinant; tags: GST (N-terminal, pGEX-6P-1); label: 32P-dCTP fill-in of the 5' (dG)5 overhangs of both strands (Methods; control probes are given with GGG)
[1] = target: Pax6 DNA-binding domain (BD-Pax6) (Mus musculus (B6), UniProt P63015 190-289)
Procedure, shortened: (§1)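 DNA binding of transcription factor DNA-binding domains to candidate cis-elements was read from band radioactivity in the expected shift region. The GST-tagged domains came from E. coli BL21 via glutathione-sepharose; probes were annealed oligonucleotides labelled with 32P-dCTP. Each assay used 20 ng protein, 40,000–50,000 cpm probe and 50 ng poly-dIdC for 30 min at room temperature, followed by 6% polyacrylamide electrophoresis in 0.25×TBE at 4°C.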

[2] = target: T1, Oct6 DNA-binding domain (BD-Oct6)
Procedure, shortened: as §1

[3] = target: T2, Brn2 DNA-binding domain (BD-Brn2)
Procedure, shortened: as §1

Sequence of Pax6 DNA-binding domain (BD-Pax6) (P63015 190-289): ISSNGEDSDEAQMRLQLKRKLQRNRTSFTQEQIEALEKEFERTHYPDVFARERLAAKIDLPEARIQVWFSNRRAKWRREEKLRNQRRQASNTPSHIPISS

Binder | binding result [1] | binding result [2] | binding result [3]
B1 | no binding | no binding | no binding
B2 | no binding | no binding | no binding
B3 | no binding | binds | binds
B4 | binds | binds | binds
B5 | no binding | binds | no binding
B6 | no binding | no binding | no binding
B7 | no binding | binds | binds
B8 | no binding | no binding | no binding
B9 | no binding | binds | binds
B10 | no binding | binds | binds
B11 | no binding | no binding | no binding
B12 | binds | binds | binds
B13 | no binding | no binding | no binding
B14 | no binding | no binding | binds
B15 | no binding | binds | no binding
B16 | no binding | no binding | no binding
B17 | no binding | no binding | no binding
B18 | binds | binds | binds
B19 | no binding | no binding | no binding
B20 | binds | binds | binds
B21 | no binding | no binding | no binding
B22 | no binding | no binding | no binding
